Reference: patent publication US20110236385A1 (GOVERNMENT OF THE UNITED STATES OF AMERICA AS REPRESENTED …, published 2011)
Ends that are not written are not given here.

Columns and labels:
[1] = molecular target: T1, soluble CA125 in OVCAR-3 supernatant (human, UniProt Q8WXI7 1-14439, limits assumed, heavily glycosylated with O-linked and N-linked oligosaccharides); experiment: sandwich ELISA, captured rFc fusion, OVCAR-3 supernatant, OC125 detection
T1 construct: Not purified: used as OVCAR-3 culture supernatant, detected with the anti-CA125 mAb OC125; also called MUC16; OVCAR-3 supernatant containing CA125
Method: (§1) Sandwich ELISA—Nunc MaxiSorp 96 well flat-bottomed plates were incubated overnight with 5 μg/mL, goat anti-rabbit IgG (Jackson ImmunoResearch Laboratories) in PBS, followed by an overnight block with 5% BSA, 0.01% NaN₃ in PBS. Purified Fc mesothelin fragments were diluted to 1 μg/mL in ELISA buffer (0.01% Tween 20, 10% Pierce SuperBlock) and incubated on plate for 1 h at room temperature (RT). Plates were then incubated with OVCAR-3 supernatant containing CA125 for 1 h at RT. To detect bound CA125 a 1:200 dilution of anti-CA125 OC125 mAb (Zymed) was incubated for an additional hour at RT; subsequently a 1:1500 dilution of goat anti-mouse IgG HRP conjugate (Biosource) was added for 1 h at RT. The plates were washed four times with ELISA buffer between each coating.
(§2) Kinetic studies by ELISA—To precisely characterize the interaction between CA125 and mesothelin and to determine a binding affinity (KD) for each mesothelin fragment, we used a quantitative ELISA-based assay. ELISA plates were coated with a goat anti-rabbit IgG antibody overnight for capturing the Fc mesothelin mutant fusion proteins. OVCAR-3 supernatant containing soluble CA125 was then added, followed by the OC125 mAb. Overall results from the ELISA were consistent with those seen in the Western blot overlay assays except for the E324A mutant of mesothelin (FIG. 5).

[2] = molecular target: soluble CA125 in OVCAR-3 supernatant (human) (UniProt Q8WXI7); experiment: sandwich ELISA, captured rFc fusion at various concentrations, OVCAR-3 supernatant, OC125 detection; nonlinear regression/Scatchard
[3] = molecular target: CA125 on the cell surface of OVCAR-3 or YOU cells (human) (UniProt Q8WXI7); experiment: cell-based or functional assay
[4] = molecular target: soluble CA125 in OVCAR-3 supernatant (human) (UniProt Q8WXI7); experiment: sandwich ELISA; average KD told of three proteins
[5] = molecular target: T2, CA125 on the cell surface of OVCAR-3 or YOU cells (human, UniProt Q8WXI7 1-14507, heavily glycosylated with O-linked and N-linked oligosaccharides); experiment: flow cytometry on OVCAR-3 cells, FULL set to 100%
T2 construct: whole, on cells; also called MUC16; human CA125
Method: FIGS. 6A-B. Binding of truncated mutants and alanine mutants to CA125 on the cell surface of OVCAR-3 cells. A. OVCAR-3 ovarian cancer cells were incubated with full-length extracellular domain of mesothelin (FULL), Region I, IAB or IBC. The binding was visualized with a goat anti-rabbit IgG PE-conjugated secondary antibody by flow cytometry (gray line). Light gray shaded plot: secondary antibody only. B. A fluorescence intensity (geometrical mean) was used to quantitatively measure the CA125 binding. In each experiment, the binding of the full-length mature form of mesothelin (FULL) to CA125 was determined as 100% of binding. The secondary antibody only was used as a negative (0%) control.
(§3) Flow cytometry—To determine binding of mesothelin fragments to CA125 on the cell surface, OVCAR-3 or YOU cells were grown until confluent, detached, and then incubated with 1 μg/mL of mesothelin or its fragments in FACS buffer (5% BSA, 0.01% NaN₃) for 1 h on ice. Bound fragments were detected by incubating with a 1:200 dilution of Goat anti-Rabbit IgG-PE (Biosource) secondary antibody in FACS buffer for 0.5 h on ice. Cells were analyzed using FACSCalibur (BD Biosciences). Each binding experiment was repeated three to five times.
Cell binding assays by flow cytometry—To assess binding to CA125 on cancer cells, wild-type mesothelin and its mutants were incubated with cells. […]

[6] = molecular target: T1, soluble CA125 in OVCAR-3 supernatant; experiment: sandwich ELISA; average KD told of three proteins
Method: (§4) Scatchard plots (top left corner) were made. ELISA plates captured the Fc mesothelin mutant fusion proteins at various concentrations (x axis; see Experimental Procedures). OVCAR-3 supernatant containing soluble CA125 was then added, followed by the OC125 mAb and a goat anti-mouse IgG HRP.
as §1
Kinetic studies by ELISA—To precisely characterize the interaction between CA125 and mesothelin and to determine a binding affinity (KD) for each mesothelin fragment, we used a quantitative ELISA-based assay. ELISA plates were coated with a goat anti-rabbit IgG antibody overnight for capturing the Fc mesothelin mutant fusion proteins. […]

[7] = molecular target: T1, soluble CA125 in OVCAR-3 supernatant; experiment: sandwich ELISA, captured rFc fusion at various concentrations, OVCAR-3 supernatant, OC125 detection; nonlinear regression/Scatchard
Method: as §4, §1, §2

[8] = molecular target: T1, soluble CA125 in OVCAR-3 supernatant; experiment: Western blot overlay with OVCAR-3 supernatant, OC125 detection
Method: FIGS. 4A-B. Western blots of mesothelin fragments and alanine mutants. Each protein (500 ng) was run on an SDS-PAGE gel and transferred to a PVDF membrane. Membrane was blotted with OVCAR-3 supernatant containing CA125 followed by OC125 (anti-CA125 mAb).
Western blots—Purified Fc mesothelin fragments (500 ng) were mixed with Laemmli Sample Buffer (Biorad) supplemented with 5% B-Mercaptoethanol. Samples were boiled for 2 min and separated on 4-20% SDS-PAGE gels (Invitrogen). After transfer for 4 h at 30V, the PVDF membrane was blocked overnight at 4° C. in 1% Western Blocking Reagent (Roche) in Tris buffered saline (50 mM Tris-HCl, 150 mM NaCl). The membrane was then incubated with OVCAR-3 supernatant+0.5% blocking solution for 1 h at RT. This was followed by incubation with 1:200 dilution of OC125 mAb for 1 h at RT. Detection was performed with goat anti-mouse IgG-HRP conjugate (Biosource) 1:1000 for 1 h.

[9] = molecular target: T2, CA125 on the cell surface of OVCAR-3 or …; experiment: flow cytometry on YOU cells, FULL set to 100%
Method: FIGS. 7A-B. Binding of truncated mutants and alanine mutants to CA125 on the cell surface of YOU cells. A. YOU mesothelioma cells were incubated with full-length extracellular domain of mesothelin (FULL) or a mutant of mesothelin. The binding was visualized with a goat anti-rabbit IgG PE-conjugated secondary antibody by flow cytometry (gray line). Light gray shaded plot: secondary antibody only. B. A mean fluorescence intensity (geometrical mean) was used to quantitatively measure the CA125 binding on YOU cells. In each experiment, the binding of the full-length mesothelin (FULL) to CA125 was determined as 100% of binding. The secondary antibody only was used as a negative (0%) control.
as §3

B1: mesothelin Region IC (360-405) rabbit IgG Fc fusion protein (Fc fusion, not shown: a dimerising Fc or GST; small tags and cut ends)
chain: YPQGYPESVIQHLGYLFLKMSPEDIRKWNVTSLETLKALLEVNKGH
modifications: also: fusion with rabbit IgG Fc, thrombin site with flexible linker, myc epitope (no letters given)
B1: no binding [1].

B2: rabbit IgG Fc fusion of the full-length extracellular domain of mesothelin (296-581) (Fc fusion, part only; not given: rabbit Fc, linker, myc tag, not shown: a dimerising Fc or GST; small tags and cut ends)
chain (part 1 of 2), part: EVEKTACPSGKKAREIDESLIFYKKWELEACVDAALLATQMDRVNAIPFTYEQLDVLKHKLDELYPQGYPESVIQHLGYLFLKMSPEDIRKWNVTSLETLKALLEVNKGHEMSPQAPRRPLPQVATLIDRFVKGRGQLDKDTLDTLTAFYPGYLCSLSPEELSSVPPSSIWAVRPQDLDTCDPRQLDVLYPKARLAFQNMNGSEYFVKIQSFLGGAPTEDLKALSQQNVSMDLATFMKLRTDAVLPLTVAEVQKLLGPHVEGLKAEERHRPVRDWILRQRQDDLDT
chain (part 2 of 2), part: HHHHHH
B2 showed a Kd [2] of 1.54 nM, an adhesion of fluorescently labeled mesothelin-expressing H9 cells onto a YOU monolayer [3] of 1 µg/mL and an adhesion of fluorescently labeled mesothelin-expressing H9 cells onto an OVCAR3 monolayer [3] of 10 µg/mL. The Kd [4] was 3 nM.

B3: mesothelin Region IAB (296-359) rabbit IgG Fc fusion protein (Fc fusion, not shown: a dimerising Fc or GST; small tags and cut ends)
chain: EVEKTACPSGKKAREIDESLIFYKKWELEACVDAALLATQMDRVNAIPFTYEQLDVLKHKLDEL
notes: also called Region IAB wild-type (wt)
With B3 the “binding activity relative to FULL” value [5] was about 90%, the Kd [6] was about 3 nM and the Kd [7] was 3.35 nM.

B4: E324A alanine mutant of mesothelin Region IAB (296-359), rabbit IgG Fc fusion protein (Fc fusion, not shown: a dimerising Fc or GST; small tags and cut ends)
chain: EVEKTACPSGKKAREIDESLIFYKKWELAACVDAALLATQMDRVNAIPFTYEQLDVLKHKLDEL
notes: Alanine mutant within Region IAB
In the case of B4, the Kd [7] is reported as 42.4 nM.

B5: Y318A alanine mutant of mesothelin Region IAB (296-359), rabbit IgG Fc fusion protein (Fc fusion, not shown: a dimerising Fc or GST; small tags and cut ends)
chain: EVEKTACPSGKKAREIDESLIFAKKWELEACVDAALLATQMDRVNAIPFTYEQLDVLKHKLDEL
notes: as for B4
B5: no binding [1].

B6: W321A alanine mutant of mesothelin Region IAB (296-359), rabbit IgG Fc fusion protein (Fc fusion, not shown: a dimerising Fc or GST; small tags and cut ends)
chain: EVEKTACPSGKKAREIDESLIFYKKAELEACVDAALLATQMDRVNAIPFTYEQLDVLKHKLDEL
notes: as for B4
Binder B6 has a Kd [7] of 19.5 nM.

B7: H354A alanine mutant of mesothelin Region IAB (296-359), rabbit IgG Fc fusion protein (Fc fusion, not shown: a dimerising Fc or GST; small tags and cut ends)
chain: EVEKTACPSGKKAREIDESLIFYKKWELEACVDAALLATQMDRVNAIPFTYEQLDVLKAKLDEL
notes: Alanine mutant within Region IAB; also called H354A mutant of IAB
Work on B7 yielded a Kd [7] of 2.71 nM.

B8: mesothelin Region IBC (328-405) rabbit IgG Fc fusion protein (Fc fusion, not shown: a dimerising Fc or GST; small tags and cut ends)
chain: DAALLATQMDRVNAIPFTYEQLDVLKHKLDELYPQGYPESVIQHLGYLFLKMSPEDIRKWNVTSLETLKALLEVNKGH
B8: no binding (tested: 500 ng) [8].

B9: mesothelin Region IB (328-369) rabbit IgG Fc fusion protein (Fc fusion, not shown: a dimerising Fc or GST; small tags and cut ends)
chain: DAALLATQMDRVNAIPFTYEQLDVLKHKLDELYPQGYPESVI
modifications: also: fusion with rabbit IgG Fc, thrombin site with flexible linker, myc epitope (no letters given)
With B9 the “CA125-binding activity relative to FULL” value [5] was about 10%, the “binding activity relative to FULL” value [9] was about 10% and the binding result [1] was “no binding”.

B10: mesothelin Region IA (296-337) rabbit IgG Fc fusion protein, rFc at the C-terminus (Fc fusion)
chain: EVEKTACPSGKKAREIDESLIFYKKWELEACVDAALLATQMD
notes: not shown: junction between fragment and rFc, and any tags, not described for this construct; rabbit IgG Fc (rFc)
B10: no binding (tested: 500 ng) [8].

B11: mesothelin Region I (296-390) rabbit IgG Fc fusion protein (Fc fusion, not shown: a dimerising Fc or GST; small tags and cut ends)
chain: EVEKTACPSGKKAREIDESLIFYKKWELEACVDAALLATQMDRVNAIPFTYEQLDVLKHKLDELYPQGYPESVIQHLGYLFLKMSPEDIRKWNVT
With B11 the “CA125 binding activity relative to FULL” value [9] was about 40% and the Kd [6] was about 3 nM.
